# According to patent US20090035322A1 (Regeneron, published 2009):
# Numbering of substitutions follows the chain as printed.
# T1: human CD20 (human, UniProt P11836 1-297)
# T1 sequence: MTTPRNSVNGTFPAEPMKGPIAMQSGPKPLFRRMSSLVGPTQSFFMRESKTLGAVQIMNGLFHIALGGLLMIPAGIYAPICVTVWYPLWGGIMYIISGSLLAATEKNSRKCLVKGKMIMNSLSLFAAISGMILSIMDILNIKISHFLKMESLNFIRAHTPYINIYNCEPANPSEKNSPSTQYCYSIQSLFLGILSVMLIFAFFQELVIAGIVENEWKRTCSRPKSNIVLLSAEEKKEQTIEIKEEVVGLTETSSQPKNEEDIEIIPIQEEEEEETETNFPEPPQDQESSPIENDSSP
# T2: mutant human CD20 #5 (P172S) (human, UniProt P11836 1-297)
# T2 construct: Stably expressed on MG87 cells
# T2 sequence: T1 sequence with P172S
# T3: mutant human CD20 #7 (Y77F, N163D) (human, UniProt P11836 1-297)
# T3 construct: Stably expressed on MG87 cells
# T3 chain: T1 sequence with Y77F, N163D
# T4: mutant human CD20 #9 (N163D, N166D) (human, UniProt P11836 1-297)
# T4 construct: Stably expressed on MG87 cells
# T4 chain: T1 sequence with N163D, N166D
# T5: mutant human CD20 #10 (A157V) (human, UniProt P11836 1-297)
# T5 construct: Stably expressed on MG87 cells
# T5 sequence: T1 sequence with A157V
# B1: 3B9-10 (antibody, V domains shown)
# VH: EVQLVESGGGLVQPGRSLRLSCVASGFTFNDYAMHWVRQAPGKGLEWVSVISWNSDSIGYADSVKGRFTISRDNAKNSLYLQMHSLRAEDTALYYCAKDNHYGSGSYYYYQYGMDVWGQGTTVTVSS
# VL: EIVMTQSPATLSVSPGERATLSCRASQSVSSNLAWYQQKPGQAPRLLIYGTSTRATGIPARFSGSGSGTEFTLTISSLQSEDFAVYYCQQYNNWPLTFGGGTKVEIK
# notes: Fully human IgG, constant region not specified; also called 3B9-10N
# B2: 3H7-6 (antibody, V domains shown)
# VH: EVQLVESGGGLVQPGRSLRLSCAASGFTFYDYAMHWVRQAPGKGLEWVSGISWNSGYIGYADSVKGRFTISRDNAKNSLYLQMNSLRAEDTALYYCAKDNSYGKFYYGLDVWGQGTTVTVSS
# VL: B1 VL with A19T, Q37L, T51A, T72I, L96I, G100Q, K103R, V104L
# notes: Fully human IgG, constant region not specified; also called 3H7-6N
# B3: 9C3-8 (antibody, V domains shown)
# VH: B1 VH with V23A, T28S, N30H, V50G, I58L, H84N, Y107H, Q111K
# VL: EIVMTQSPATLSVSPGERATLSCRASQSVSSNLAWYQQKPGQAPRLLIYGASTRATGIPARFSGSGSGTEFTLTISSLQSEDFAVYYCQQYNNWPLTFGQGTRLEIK
# notes: Fully human IgG, constant region not specified; also called 9C3-8N
# B4: 7E1-13 (antibody, V domains shown)
# VH: EVQLVESGGGLVQPGRSLRLSCTASGFTFGDFPMHWVRQAPGKGLEWVSGITWNSGSIVYADSVKGRFTISRDNAKNSLYLQMNSLRTEDTALYYCAKDSHYGSGNFYYYYYGMDVWGQGTTVTVSS
# VL: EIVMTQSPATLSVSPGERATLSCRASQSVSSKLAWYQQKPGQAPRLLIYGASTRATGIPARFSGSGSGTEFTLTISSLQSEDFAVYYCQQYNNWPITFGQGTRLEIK
# notes: Fully human IgG, constant region not specified; also called 7E1-13N
# B5: 6B9-4 (antibody, V domains shown)
# VH: EEQLVESGGDLVQPGRSLRLSCAASGFTFHDYTMHWVRQAPGKGLEWVSGISWNSGSIGYADSVKGRFTISRDNAKNSLYLQMNSLRIEDTALYYCAKDPSYGSGSYYYYYGMDVWGQGTTVTVSS
# VL: EIVLTQSPATLSLSPGERATLSCRASQSVSSYLVWYQQRPGQAPRLLIYEASNRATGIPARFSGSGSGTDFTLTISSLESEDFAVYYCQQRSNWPLTFGGGTKVEIK
# notes: Fully human IgG, constant region not specified; also called 6B9-4N
# B6: 2C11-4 (antibody, V domains shown)
# VH: EVQLVESGGGLVQPGRSLRLSCAASGFTFRDYAMHWVRQGPGKGLEWVSGISWNTDYIGYADSVKGRFTISRDNAKNSLYLQMNSLRPEDTALYYCAKDARYGRDNYYGMDVWGQGTTVTVSS
# VL: EIVLTQSPATLSLSPGERATLSCRASQSVSRYLAWYQQKPGQAPRLLIHDASNRATGIPARFSGSGSGTDFTLTITSLEPEDFVVYYCQQRSDWPITFGQGTRLEIK
# notes: Fully human IgG, constant region not specified; also called 2C11-4N
# B7: 9H4-12 (antibody, V domains shown)
# VH: EVQLVESGGGLVQPGRSLRLSCAASGFTFDDYAMHWVRQVPGKGLEWVSGISWNSGSIGYADSVKGRFTISRDNAKNSLYLQMNSLRAEDTALYYCAKDMGYGNYYHYGMDVWGQGTTVTVSS
# VL: B6 VL with E1D, R31S, H49C, N53H, G57R, T76S, V84A, D93N
# notes: Fully human IgG, constant region not specified; also called 9H4-12N
# Molecular target: T1, human CD20
# Assay: cell-based or functional assay
Binder,"CDC, Daudi EC50","CDC, RL EC50"
B1,1.86 nM,8.84 nM
B2,0.44 nM,3.66 nM
B3,2.22 nM,11.1 nM
B4,1.59 nM,5.81 nM
B5,0.34 nM,0.97 nM
B6,> 50 nM,5.19 nM
B7,51.1 nM,29.6 nM

# Molecular target: T1, human CD20
# Assay: cell-based or functional assay
# Remark: another data set of the same source
Binder,"% Cytotoxicity (CDC, Daudi), 0 hour","% Cytotoxicity (CDC, Daudi), 1 hour","% Cytotoxicity (CDC, Daudi), 6 hour"
B2,97.5%,94%,67.6%
B5,98.1%,98.5%,97.5%

# Molecular target: T1, human CD20
# Assay: cell-based or functional assay
# Remark: another data set of the same source
Binder,"% Cytotoxicity (CDC, Daudi), 0 hour","% Cytotoxicity (CDC, Daudi), 1 hour","% Cytotoxicity (CDC, Daudi), 6 hour"
B1,98.4%,97.9%,82.2%
B3,98.7%,98.5%,76.9%
B4,98.1%,98.5%,89.3%
B6,29.1%,14%,22.4%
B7,43.2%,17.4%,23.1%

# Molecular target: T2, mutant human CD20 #5 (P172S)
# Assay: FACS, mutant-hCD20 MG87 cells; 100%=best antibody
# Protocol: (§1) Briefly, approximately 1×10⁶ cells from each stably transfected cell line expressing a mutant human CD20 were collected and incubated with each anti-human antibody, at 10 μg/ml, on ice for 1 hr, followed by incubation with APC-conjugated goat anti-human IgG (Jackson Immunolabs), at 10 μg/ml, on ice for 45 min. For each antibody, binding to each mutant human CD20 was assessed by flow cytometry.
row,Binder,Percent of Binding to Mutant Human CD20
1,B1,72%
2,B2,45%
3,B3,76%
4,B4,85%
5,B5,67%
6,B6,30%
7,B7,2%

# Molecular target: T3, mutant human CD20 #7 (Y77F, N163D)
# Assay: FACS, mutant-hCD20 MG87 cells; 100%=best antibody
# Protocol: as §1
row,Binder,Percent of Binding to Mutant Human CD20
1,B1,1%
2,B2,1%
3,B3,1%
4,B4,1%
5,B5,2%
6,B6,1%
7,B7,2%

# Molecular target: T4, mutant human CD20 #9 (N163D, N166D)
# Assay: FACS, mutant-hCD20 MG87 cells; 100%=best antibody
# Protocol: as §1
row,Binder,Percent of Binding to Mutant Human CD20
1,B1,4%
2,B2,3%
3,B3,3%
4,B4,4%
5,B5,3%
6,B6,3%
7,B7,4%

# Molecular target: T5, mutant human CD20 #10 (A157V)
# Assay: FACS, mutant-hCD20 MG87 cells; 100%=best antibody
# Protocol: as §1
row,Binder,Percent of Binding to Mutant Human CD20
1,B1,79%
2,B2,80%
3,B3,77%
4,B4,92%
5,B5,75%
6,B6,68%
7,B7,52%
